Source: patent publication US20210347873A1 (SHANGHAI PHARMAEXPLORER, published 2021)

T1: human APRIL protein (human, UniProt O75888 105-250, limits assumed)
T1 construct: Bought protein; also called recombinant APRIL protein
T1 sequence (looked up): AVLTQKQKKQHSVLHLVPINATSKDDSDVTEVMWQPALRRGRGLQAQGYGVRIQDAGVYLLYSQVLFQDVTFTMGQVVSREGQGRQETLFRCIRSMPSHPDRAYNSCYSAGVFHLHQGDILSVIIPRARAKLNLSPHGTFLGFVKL

T2: cynomolgus BLyS (full length, arginine 132 mutated to histidine) on CHO-K1 cells (cynomolgus, UniProt Q9Y275 1-285 (human entry))
T2 construct: also called cyno BLyS; CHO-K1 cynoBLyS
T2 chain: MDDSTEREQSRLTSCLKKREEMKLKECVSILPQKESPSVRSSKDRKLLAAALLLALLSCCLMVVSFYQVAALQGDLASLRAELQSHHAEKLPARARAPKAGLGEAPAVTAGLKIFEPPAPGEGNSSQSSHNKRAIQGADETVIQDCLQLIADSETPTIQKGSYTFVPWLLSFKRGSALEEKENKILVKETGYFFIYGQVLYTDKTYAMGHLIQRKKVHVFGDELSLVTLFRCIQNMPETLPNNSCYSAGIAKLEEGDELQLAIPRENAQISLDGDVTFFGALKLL


What was measured:
human APRIL protein [1] = molecular target: T1, human APRIL protein; assay: ELISA, coated APRIL; antibody 0.00427 nM
Description: (§1) To test whether the BLyS antibody cross-reacted with human APRIL protein, APRIL protein (purchased from R & D Systems) was first diluted to a final concentration of 1.0 μg/mL with PBS, and then 50 μL of which per well was aliquoted into a 96-well ELISA plate, and the plate was subsequently sealed with plastic film and incubated at 4° C. overnight. On the next day the plate was rinsed four times with the plate washing buffer [PBS buffer containing 0.0500 (v/v) Tween20] and a blocking solution [PBS buffer containing 0.05 (v/v) Tween20 and 1 (w/w) BSA] was added, then the protein was blocked at 37° C. for 2 hours. The blocking solution was removed and 100 μL per well of the lead antibodies prepared in Embodiment 1 and 2 were added in. After incubation for 1 hour at 37° C., the plate was rinsed four times with the plate washing buffer [PBS buffer containing 0.05 (v/v) Tween20]. HRP-labeled (horseradish peroxidase) secondary antibody (purchased from Sigma) was added in and incubated at 37° C. for 1 hour. The plate was then rinsed four times with the plate washing buffer [PBS buffer containing 0.050 (v/v) Tween20]. 100 μL of TMB substrate was aliquoted into each well and after incubation at room temperature for 5 minutes, 100 μL of stop solution (1.0 N HCl) was aliquoted into each well. A₄₅₀ₙₘ values were read via an ELISA plate reader (SpectraMax M5e purchased from Molecular Devices) and the results were shown in FIGS. 6A-6B and Table 11. […] As used herein, the IgG control is human IgG and the data in the table is GD number at 450 nm.

human APRIL protein [2] = molecular target: T1, human APRIL protein; assay: ELISA, coated APRIL; antibody 13.3 nM
Description: as §1

[3] = molecular target: T2, cynomolgus BLyS (full length, arginine …); assay: flow cytometry (FACS) on CHO-K1 cynoBLyS cells, Alexa 488 secondary antibody
Description: (§2) The medium was aspirated completely, and the cells were rinsed once with PBS buffer (purchased from Invitrogen) and then treated with cell dispersion solution (TrypLE™ Express Enzyme, purchased from Life technology) and collected. The detailed steps are as follows: the cells were rinsed once with PBS buffer, after counting, the cells were diluted to 2×10⁶ cells/ml with PBS buffer, blocked with 2% (w/w) fetal bovine serum and incubated on ice for 30 minutes. 200 μL of which per well was aliquoted into a 96-well FACS plate and centrifuged at 2000 rpm at 4° C., then each 100 μL of the lead antibodies obtained from Embodiment 1 and 2 were aliquoted into each well and incubated on ice for 1 hour. […] After centrifuged and rinsed 3 times with FACS buffer, cells were suspended with 200 μL of FACS buffer and the results were detected and analyzed by FACS (FACS Calibur, purchased from BD). It was shown in Tables 12-13 that the lead antibody could bind to human BLyS protein on the cell surface and the lead antibody could cross-react with cynomolgus BLyS. The data in the table is MFI, the average fluorescence intensity of the cell population.

human APRIL protein [4] = molecular target: T1, human APRIL protein; assay: ELISA, coated APRIL; antibody 0.534 nM
Description: as §1

human APRIL protein [5] = molecular target: T1, human APRIL protein; assay: ELISA, coated APRIL; antibody 66.7 nM
Description: as §1

human APRIL protein [6] = molecular target: T1, human APRIL protein; assay: ELISA, coated APRIL; antibody 0 nM (blank)
Description: as §1

human APRIL protein [7] = molecular target: T1, human APRIL protein; assay: ELISA, coated APRIL; antibody 0.107 nM
Description: as §1

human APRIL protein [8] = molecular target: T1, human APRIL protein; assay: ELISA: APRIL coated at 1.0 µg/mL, antibody titrated, HRP secondary antibody
Description: as §1

human APRIL protein [9] = molecular target: T1, human APRIL protein; assay: ELISA, coated APRIL; antibody 2.67 nM
Description: as §1

human APRIL protein [10] = molecular target: T1, human APRIL protein; assay: ELISA, coated APRIL; antibody 0.0213 nM
Description: as §1

[11] = molecular target: T3, human BLyS (full length, arginine 132 mutated to histidine) on CHO-K1 cells (human, UniProt Q9Y275 1-285); assay: flow cytometry (FACS) on CHO-K1 hBLyS cells, Alexa 488 secondary antibody
T3 construct: also called hBLyS; CHO-K1 hBLyS
Description: as §2

biotinylated hBLyS-ECD [12] = molecular target: T4, biotinylated hBLyS-ECD (human, UniProt Q9Y275 134-285, biotinylated with Biotin-X-X-NHS (molar ratio 7:1); sites not stated); assay: competition ELISA; competitor 35E6F7C3
T4 construct: also called biotinylated immunogen; biotinylated hBLvS-ECD
Description: (§3) The purified human BLyS antibody and hybridoma antibody were subjected to competitive enzyme-linked immunosorbent assay and the epitopes binding by different antibodies were analyzed.
(§4) Purified BLyS antibody was first diluted to a final concentration of 1.0 μg/mL with PBS, then aliquoted into a 96-well ELISA plate at 50 μL per well, and the plate was subsequently sealed with plastic film and incubated at 4° C. overnight. On the next day the plate was rinsed four times with the plate washing buffer [PBS buffer containing 0.05% (v/v) Tween20] and mixed with blocking solution [PBS buffer containing 0.05% (v/v) Tween20 and 1% (w/w) BSA], and then blocked at 37° C. for 1 hour. The blocking solution was removed, and the competitive antibody and IgG control were diluted to a final concentration of 40 μg/mL with PBS and then aliquoted into the 96-well ELISA plate at 50 μL per well. The biotinylated hBLyS-ECD was then diluted with PBS to a final concentration of 2 ng/mL and pipetted into the 96-well ELISA plate at 50 μL per well. The final concentration of competitive antibody and hBLyS-ECD was 20 μg/mL and 1 ng/mL, respectively. After incubation at 37° C. for 1 hour, the plate was rinsed four times with the plate washing buffer [PBS buffer containing 0.05% (v/v) Tween20]. 100 μL per well of HRP-labeled (horseradish peroxidase) streptavidin (purchased from Sigma) was added into the plate and the plate was incubated at 37° C. for 1 hour. The plate was then washed four times with the plate washing buffer [PBS buffer containing 0.05% (v/v) Tween20]. 100 μL of TMB substrate was aliquoted into each well and after incubation at room temperature for 5 minutes, 100 μL of stop solution (1.0 N HCl) was aliquoted into each well. A₄₅₀ₙₘ values were read by an ELISA plate reader (SpectraMax M5e, purchased from Molecular Device) and the results were shown in Tables 18A-18B. […] The data shown in the table is the inhibitory rate (%) of the binding level of the original antibody to hBLyS-ECD after addition of the competitive antibody.

biotinylated hBLyS-ECD [13] = molecular target: T4, biotinylated hBLyS-ECD; assay: competition ELISA; competitor 97A3C2H4
Description: as §3, §4

biotinylated hBLyS-ECD [14] = molecular target: T4, biotinylated hBLyS-ECD; assay: competition ELISA; competitor 67A2E1D10
Description: as §3, §4

biotinylated hBLyS-ECD [15] = molecular target: T4, biotinylated hBLyS-ECD; assay: competition ELISA; competitor 78C11D2D12
Description: as §3, §4

biotinylated hBLyS-ECD [16] = molecular target: T4, biotinylated hBLyS-ECD; assay: competition ELISA; competitor 8E7D9C7F5
Description: as §3, §4

biotinylated hBLyS-ECD [17] = molecular target: T4, biotinylated hBLyS-ECD; assay: competition ELISA; competitor 111D10D6G3
Description: as §3, §4

biotinylated hBLyS-ECD [18] = molecular target: T4, biotinylated hBLyS-ECD; assay: competition ELISA; competitor 93C6F10D3
Description: as §3, §4

T3 sequence (Q9Y275 other isoform, or with tags, fused parts or gaps limits assumed, change not shown): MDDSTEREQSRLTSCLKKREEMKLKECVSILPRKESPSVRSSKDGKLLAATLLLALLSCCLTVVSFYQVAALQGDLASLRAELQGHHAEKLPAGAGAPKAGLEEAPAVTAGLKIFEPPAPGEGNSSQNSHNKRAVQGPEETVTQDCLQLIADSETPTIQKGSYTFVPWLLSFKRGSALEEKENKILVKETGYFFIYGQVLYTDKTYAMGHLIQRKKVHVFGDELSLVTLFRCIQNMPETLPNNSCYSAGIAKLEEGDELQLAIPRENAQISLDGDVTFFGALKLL

Binder | OD450 nm (human APRIL protein [1]) | OD450 nm (human APRIL protein [2]) | EC50 (read off the curve) [3] | OD450 nm (human APRIL protein [4]) | OD450 nm (human APRIL protein [5]) | OD450 nm (human APRIL protein [6]) | OD450 nm (human APRIL protein [7]) | binding result (human APRIL protein [8]) | OD450 nm (human APRIL protein [9]) | OD450 nm (human APRIL protein [10]) | EC50 (read off the curve) [11] | inhibitory rate (%) (biotinylated hBLyS-ECD [12]) | inhibitory rate (%) (biotinylated hBLyS-ECD [13]) | inhibitory rate (%) (biotinylated hBLyS-ECD [14]) | inhibitory rate (%) (biotinylated hBLyS-ECD [15]) | inhibitory rate (%) (biotinylated hBLyS-ECD [16]) | inhibitory rate (%) (biotinylated hBLyS-ECD [17]) | inhibitory rate (%) (biotinylated hBLyS-ECD [18])
35E6F7C3 (antibody, V domains shown, Mouse hybridoma antibody purified on Protein G) VH: EVQLQQSGAELVKPGASVKLSCTAAGFNIQDTYIHWVKQRPEQGLEWIGRIDPANANTVYDPKFQGKATITADTSSNTAYLQVSSLTSEDTAVYYCASPVITAGFAYWGQGTLVTVSA VL: QIVLTQSPAIMSASPGEKVTMTCGASSSVNYVHWYQQKSGTSPKRWIYDTSKLASGVPARFSGSGSGTSYSLTISSMEAEDAATYYCQQWTRSPLTFGAGTKVELK | 0.0553 | 0.0567 | ~0.7 nM | 0.0544 | 0.0703 | 0.0542 | 0.0537 | no binding (tested: 66.7 nM) | 0.0561 | 0.0532 |  |  |  |  |  |  |  | 
8E7D9C7F5 (antibody, V domains shown, Mouse hybridoma antibody purified on Protein G) VH: QVQLQQSGVELARPGASVKLSCKASGYTFTSYGISWVKQRTGQALEWIGEIYPRSGNTYYNEKFKGKATLTADKSSSTAYMELRSLTSEDSAVYFCARSGPITTLVATDYGMDYWGQGTSVTVSS VL: DIVLTQSPASLAVSLGQRATISCRASKSVSTSSYSYMHWYQQKPGQPPKLLIKFASNLESGVPARFSGSGSGTDFTLNIHPVEEEDAATYYCQHSREFPYTFGGGTKLEIK |  |  |  |  |  |  |  |  |  |  |  | 40% | 89% | 96% | 94% | 92% | 96% | 85%
2-1G11 (antibody, human IgG1, V domains shown) VH: EVQLVESRGGVVQPGRSLRLSCAASGFTFSSYGMHWVRQAPGKGLEWVAVISYDGSNKYYADSVKGRFTISRDNSKNTLYLQMNSLRAEDAAVYYCARDRVDILTGYSIYGMDVWGQGTTVTVSS VL: EIVMTQSPATLSLSPGERATLSCRASQSVSSYLAWYQQKPGQAPRLLIYDASKRATGIPARFSGSGSGTDFTLTISSLEPEDFAVYYCQQRSNWPLTFGGGTKVEIK | 0.107 | 0.137 | ~0.1 nM | 0.0668 | 0.296 | 0.0847 | 0.0699 | no binding (tested: 66.7 nM) | 0.0901 | 0.0733 | ~0.09 nM |  |  |  |  |  |  | 

Other lines, results leading:

OD450 nm (human APRIL protein [1]) | OD450 nm (human APRIL protein [2]) | EC50 (read off the curve) [3] | OD450 nm (human APRIL protein [4]) | OD450 nm (human APRIL protein [5]) | OD450 nm (human APRIL protein [6]) | OD450 nm (human APRIL protein [7]) | binding result (human APRIL protein [8]) | OD450 nm (human APRIL protein [9]) | OD450 nm (human APRIL protein [10]) | EC50 (read off the curve) [11] | inhibitory rate (%) (biotinylated hBLyS-ECD [12]) | inhibitory rate (%) (biotinylated hBLyS-ECD [13]) | inhibitory rate (%) (biotinylated hBLyS-ECD [14]) | inhibitory rate (%) (biotinylated hBLyS-ECD [15]) | inhibitory rate (%) (biotinylated hBLyS-ECD [16]) | inhibitory rate (%) (biotinylated hBLyS-ECD [17]) | inhibitory rate (%) (biotinylated hBLyS-ECD [18]) | Binder
0.0564 | 0.0703 | ~0.2 nM | 0.0553 | 0.138 | 0.0565 | 0.0549 | no binding (tested: 66.7 nM) | 0.0613 | 0.0534 | ~0.2 nM |  |  |  |  |  |  |  | 78C11D2D12 (antibody, V domains shown, Mouse hybridoma antibody purified on Protein G) VH: QVQLQQSGAELVRPGTSVKISCKASGYAFTNYWLGWVKQRPGHGLEWIGDIYPGSGNTYYNEKFKGKATLTADKSSSTAYMQLSSLTSEDSAVFFCAAYLYAMDYWGQGTSVTVSS VL: QIVLTQSPAIMSASPGEKVTITCSASSSVSYMHWFQQKPGTSPKLWIYSASNLASGVPARFSGSGSGTSYSLTISRMEAEDAATYYCQQRGSYPFTFGSGTKLEIK
0.0578 | 0.0973 | ~0.7 nM | 0.0565 | 0.196 | 0.0655 | 0.0548 | no binding (tested: 66.7 nM) | 0.0614 | 0.0547 | ~0.7 nM |  |  |  |  |  |  |  | 89A2G5E7 (antibody, V domains shown, Mouse hybridoma antibody purified on Protein G) VH: QVQLKESGPGLVAPSQSLSITCTVSGLSLNSHDISWIRQPPGKGLEWLGVIWSGGGTKYNSAFMSRLSISKDNSKSQVFLKMNSLHTDDTAIYYCVRTPSMITYSAMDYWGQGTSVTVSS VL: EIVLTQSPALMAASPGEKVTITCSVSSSISSRNLHWYQQKSQTSPKAWIHATSNLASGVPVRFSGSGSGTSYSLTISSMEAEDAATYYCQQWSSYPLTFGSGTKLEIK
